In article PMC6555819, “Comprehensive study of nuclear receptor DNA binding provides a revised framework for understanding receptor specificity” one finds binding signal data, which are given here for 32 molecules.

The chains are these.
B1: NRC3_wobSeed85_DR3_A16C_o1 (dsDNA)
DNA 1: GCCGTCCAAGGTCAGCGAGGTCAGTGAATGCCGAGTGCGATTGACAGCGTAGAATGAAGG
DNA 2: CCTTCATTCTACGCTGTCAATCGCACTCGGCATTCACTGACCTCGCTGACCTTGGACGGC
B2: NRC3_wobSeed101_DR4_C18G_o1 (dsDNA)
DNA 1: GCCCTTACGGGTCACTCGAGGTTATAGCATCGGAGTGCGATTGACAGCGTAGAATGAAGG
DNA 2: CCTTCATTCTACGCTGTCAATCGCACTCCGATGCTATAACCTCGAGTGACCCGTAAGGGC
B3: NRC3_wobSeed102_DR4_C12T_o1 (dsDNA)
DNA 1: GCCCTAGCAGGTCAATCTGGGTCACTCAAGGCTTGAGCGATTGACAGCGTAGAATGAAGG
DNA 2: CCTTCATTCTACGCTGTCAATCGCTCAAGCCTTGAGTGACCCAGATTGACCTGCTAGGGC
B4: NRC3_wobSeed73_DR3_A16T_o1 (dsDNA)
DNA 1: GCCAAACTAGGTCACTGAGGTCAAAGTCCGTGCGTAGCGATTGACAGCGTAGAATGAAGG
DNA 2: CCTTCATTCTACGCTGTCAATCGCTACGCACGGACTTTGACCTCAGTGACCTAGTTTGGC
B5: NRC3_wobSeed37_DR1_A25G_o1 (dsDNA)
DNA 1: GCCGTCCAAGGTCAAAGGTCAGTGGAGAGATGACGGGCGATTGACAGCGTAGAATGAAGG
DNA 2: CCTTCATTCTACGCTGTCAATCGCCCGTCATCTCTCCACTGACCTTTGACCTTGGACGGC
B6: NRC3_wobSeed49_DR2_A15T_o1 (dsDNA)
DNA 1: GCCAAACTAGGTCATGAGGTCAAAGTCCGCTTCCCGGCGATTGACAGCGTAGAATGAAGG
DNA 2: CCTTCATTCTACGCTGTCAATCGCCGGGAAGCGGACTTTGACCTCATGACCTAGTTTGGC
B7: NRC3_wobSeed120_DR4_A17T_o1 (dsDNA)
DNA 1: GCCCGAGTAGGTTACGTGGGGGCATTCAGTGCGAATGCGATTGACAGCGTAGAATGAAGG
DNA 2: CCTTCATTCTACGCTGTCAATCGCATTCGCACTGAATGCCCCCACGTAACCTACTCGGGC
B8: NRC3_wobSeed117_DR4_A15C_o1 (dsDNA)
DNA 1: GCCGTCAAAGTTCACCTAAGGTAACGTAAAGCACGCGCGATTGACAGCGTAGAATGAAGG
DNA 2: CCTTCATTCTACGCTGTCAATCGCGCGTGCTTTACGTTACCTTAGGTGAACTTTGACGGC
B9: NRC3_wobSeed117_DR4_C16T_o1 (dsDNA)
DNA 1: GCCGTCAAAGTTCAATTAAGGTAACGTAAAGCACGCGCGATTGACAGCGTAGAATGAAGG
DNA 2: CCTTCATTCTACGCTGTCAATCGCGCGTGCTTTACGTTACCTTAATTGAACTTTGACGGC
B10: NRC3_wobSeed112_DR4_C22T_o1 (dsDNA)
DNA 1: GCTAGCCTAGGTCAGATCGGGTCAGTATACGCTATAGCGATTGACAGCGTAGAATGAAGG
DNA 2: CCTTCATTCTACGCTGTCAATCGCTATAGCGTATACTGACCCGATCTGACCTAGGCTAGC
B11: NRC3_wobSeed112_DR4_T8G_o1 (dsDNA)
DNA 1: GCTAGCCGAGGTCAGATCGGGCCAGTATACGCTATAGCGATTGACAGCGTAGAATGAAGG
DNA 2: CCTTCATTCTACGCTGTCAATCGCTATAGCGTATACTGGCCCGATCTGACCTCGGCTAGC
B12: NRC3_wobSeed110_DR4_T19A_o1 (dsDNA)
DNA 1: GCTCTGCTAGGTCAACGAAGGTCAGCTAATCTGCTAGCGATTGACAGCGTAGAATGAAGG
DNA 2: CCTTCATTCTACGCTGTCAATCGCTAGCAGATTAGCTGACCTTCGTTGACCTAGCAGAGC
B13: NRC3_wobSeed100_DR4_A17T_o1 (dsDNA)
DNA 1: GCCCTACTGGGCCACGTAAGGTCATTGATTCAGTGAGCGATTGACAGCGTAGAATGAAGG
DNA 2: CCTTCATTCTACGCTGTCAATCGCTCACTGAATCAATGACCTTACGTGGCCCAGTAGGGC
B14: NRC3_wobSeed113_DR4_T8C_o1 (dsDNA)
DNA 1: GCATATGCAGGTTAGCTGGGGTCATTCAGACTAGGCGCGATTGACAGCGTAGAATGAAGG
DNA 2: CCTTCATTCTACGCTGTCAATCGCGCCTAGTCTGAATGACCCCAGCTAACCTGCATATGC
B15: NRC3_wobSeed113_DR4_G29T_o1 (dsDNA)
DNA 1: GCATATGTAGGTTAGCTGGGGTCATTCATACTAGGCGCGATTGACAGCGTAGAATGAAGG
DNA 2: CCTTCATTCTACGCTGTCAATCGCGCCTAGTATGAATGACCCCAGCTAACCTACATATGC
B16: NRC3_wobSeed106_DR4_G15A_o1 (dsDNA)
DNA 1: GCCTCGAAAGGTCGATTGAGGTGAGTATACGGATAAGCGATTGACAGCGTAGAATGAAGG
DNA 2: CCTTCATTCTACGCTGTCAATCGCTTATCCGTATACTCACCTCAATCGACCTTTCGAGGC
B17: NRC3_wobSeed106_DR4_T4G_o1 (dsDNA)
DNA 1: GCCGCGAAAGGTCGGTTGAGGTGAGTATACGGATAAGCGATTGACAGCGTAGAATGAAGG
DNA 2: CCTTCATTCTACGCTGTCAATCGCTTATCCGTATACTCACCTCAACCGACCTTTCGCGGC
B18: NRC3_wobSeed98_DR4_G15A_o1 (dsDNA)
DNA 1: GCACTAGTTGGTCAACTGAGGTCACACACAATTCGGGCGATTGACAGCGTAGAATGAAGG
DNA 2: CCTTCATTCTACGCTGTCAATCGCCCGAATTGTGTGTGACCTCAGTTGACCAACTAGTGC
B19: NRC3_wobSeed98_DR4_T8G_o1 (dsDNA)
DNA 1: GCACTAGGTGGTCAGCTGAGGTCACACACAATTCGGGCGATTGACAGCGTAGAATGAAGG
DNA 2: CCTTCATTCTACGCTGTCAATCGCCCGAATTGTGTGTGACCTCAGCTGACCACCTAGTGC
B20: NRC3_wobSeed114_DR4_G17C_o1 (dsDNA)
DNA 1: GCAATACAGGGTCATCCTAGGCCAGAGTACGCACAGGCGATTGACAGCGTAGAATGAAGG
DNA 2: CCTTCATTCTACGCTGTCAATCGCCTGTGCGTACTCTGGCCTAGGATGACCCTGTATTGC
B21: NRC3_wobSeed114_DR4_T18G_o1 (dsDNA)
DNA 1: GCAATACAGGGTCATCGGAGGCCAGAGTACGCACAGGCGATTGACAGCGTAGAATGAAGG
DNA 2: CCTTCATTCTACGCTGTCAATCGCCTGTGCGTACTCTGGCCTCCGATGACCCTGTATTGC
B22: NRC3_wobSeed118_DR4_G24A_o1 (dsDNA)
DNA 1: GCTTACCAAGGTGAGCTGAGGTCATTGATCCAACTCGCGATTGACAGCGTAGAATGAAGG
DNA 2: CCTTCATTCTACGCTGTCAATCGCGAGTTGGATCAATGACCTCAGCTCACCTTGGTAAGC
B23: NRC3_wobSeed118_DR4_A8G_o1 (dsDNA)
DNA 1: GCTTACCGAGGTGAGCTGAGGTCGTTGATCCAACTCGCGATTGACAGCGTAGAATGAAGG
DNA 2: CCTTCATTCTACGCTGTCAATCGCGAGTTGGATCAACGACCTCAGCTCACCTCGGTAAGC
B24: NRC3_wobSeed118_DR4_G15C_o1 (dsDNA)
DNA 1: GCTTACCAAGGTGACCTGAGGTCGTTGATCCAACTCGCGATTGACAGCGTAGAATGAAGG
DNA 2: CCTTCATTCTACGCTGTCAATCGCGAGTTGGATCAACGACCTCAGGTCACCTTGGTAAGC
B25: NRC3_wobSeed121_DR5_T8C_o1 (dsDNA)
DNA 1: GCCAAACCAGGTCACCGGAAGGTCAAAGTCCGCATGGCGATTGACAGCGTAGAATGAAGG
DNA 2: CCTTCATTCTACGCTGTCAATCGCCATGCGGACTTTGACCTTCCGGTGACCTGGTTTGGC
B26: NRC3_wobSeed108_DR4_T23C_o1 (dsDNA)
DNA 1: GCGCGACTGGGGCAAAGCAGGTCACCATAAGGTTGGGCGATTGACAGCGTAGAATGAAGG
DNA 2: CCTTCATTCTACGCTGTCAATCGCCCAACCTTATGGTGACCTGCTTTGCCCCAGTCGCGC
B27: NRC3_wobSeed119_DR4_T21G_o1 (dsDNA)
DNA 1: GCGGAACGAGGGCATTCGAGGTGATAGCATGGCGATGCGATTGACAGCGTAGAATGAAGG
DNA 2: CCTTCATTCTACGCTGTCAATCGCATCGCCATGCTATCACCTCGAATGCCCTCGTTCCGC
B28: NRC3_wobSeed97_DR4_A17C_o1 (dsDNA)
DNA 1: GCCAAACTAGGTCACGCAAGGTCAAAGTCGAATGACGCGATTGACAGCGTAGAATGAAGG
DNA 2: CCTTCATTCTACGCTGTCAATCGCGTCATTCGACTTTGACCTTGCGTGACCTAGTTTGGC
B29: NRC3_wobSeed130_DR5_G24C_o1 (dsDNA)
DNA 1: GCCTCGAAAGGTCGTGCTCAGGTCAGTATACCAAACGCGATTGACAGCGTAGAATGAAGG
DNA 2: CCTTCATTCTACGCTGTCAATCGCGTTTGGTATACTGACCTGAGCACGACCTTTCGAGGC
B30: NRC3_wobSeed103_DR4_A13C_o1 (dsDNA)
DNA 1: GCGCATATAGGTCATACAAGGTGAAAGTCCGATTGTGCGATTGACAGCGTAGAATGAAGG
DNA 2: CCTTCATTCTACGCTGTCAATCGCACAATCGGACTTTCACCTTGTATGACCTATATGCGC
B31: NRC3_wobSeed103_DR4_A16T_o1 (dsDNA)
DNA 1: GCGCATATAGGTAATTCAAGGTGAAAGTCCGATTGTGCGATTGACAGCGTAGAATGAAGG
DNA 2: CCTTCATTCTACGCTGTCAATCGCACAATCGGACTTTCACCTTGAATTACCTATATGCGC
B32: NRC3_wobSeed103_DR4_A13T_o1 (dsDNA)
DNA 1: GCGCATATAGGTTATACAAGGTGAAAGTCCGATTGTGCGATTGACAGCGTAGAATGAAGG
DNA 2: CCTTCATTCTACGCTGTCAATCGCACAATCGGACTTTCACCTTGTATAACCTATATGCGC

Chain of THRa:RXRa (P10827 other isoform, or with tags, fused parts or gaps, chain 1 of 2): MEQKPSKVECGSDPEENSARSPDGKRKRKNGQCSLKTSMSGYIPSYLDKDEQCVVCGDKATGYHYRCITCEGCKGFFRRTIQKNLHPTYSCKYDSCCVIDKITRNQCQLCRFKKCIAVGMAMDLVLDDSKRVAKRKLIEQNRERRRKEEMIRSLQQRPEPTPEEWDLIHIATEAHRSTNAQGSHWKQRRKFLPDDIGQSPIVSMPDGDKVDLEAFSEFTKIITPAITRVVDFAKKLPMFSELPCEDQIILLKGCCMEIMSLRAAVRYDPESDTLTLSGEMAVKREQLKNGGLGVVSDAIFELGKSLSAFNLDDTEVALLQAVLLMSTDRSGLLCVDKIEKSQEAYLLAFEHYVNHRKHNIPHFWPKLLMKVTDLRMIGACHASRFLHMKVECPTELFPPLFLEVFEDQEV
Chain of THRa:RXRa (P19793 whole entry, chain 2 of 2): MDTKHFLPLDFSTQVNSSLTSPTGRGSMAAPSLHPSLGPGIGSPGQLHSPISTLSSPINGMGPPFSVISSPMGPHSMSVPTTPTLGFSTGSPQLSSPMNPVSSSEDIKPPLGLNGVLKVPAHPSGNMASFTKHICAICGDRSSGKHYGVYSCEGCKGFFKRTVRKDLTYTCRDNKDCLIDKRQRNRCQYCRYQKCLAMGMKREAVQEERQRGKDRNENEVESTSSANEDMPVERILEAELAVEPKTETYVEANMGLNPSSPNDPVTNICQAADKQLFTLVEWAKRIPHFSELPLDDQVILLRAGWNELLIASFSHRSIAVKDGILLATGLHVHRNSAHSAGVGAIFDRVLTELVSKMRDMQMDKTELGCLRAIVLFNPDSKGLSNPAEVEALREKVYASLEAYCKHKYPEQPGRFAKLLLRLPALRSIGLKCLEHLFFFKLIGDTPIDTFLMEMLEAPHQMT

This data set has as its target THRa:RXRa (Homo sapiens, UniProt P10827;P19793 full;full). The data set can be described thus: no ligand; PBM; 90 nM : 90 nM RXRa; PBS pH 7.4, 2% milk, 0.02% Triton X-100, 1 mM DTT, BSA, 0.4 mg/ml salmon testes DNA. The following applies: tags: His kept;His cleaved; copies: 1;1; label: surface-attached array probe.
On to B1, for which the binding signal is 4.81 PBM z-score against 500 random probes. Regarding B2, the binding signal was 5.34 PBM z-score against 500 random probes. Then B3, with 5.18 PBM z-score against 500 random probes; and B4, with 5.07 PBM z-score against 500 random probes; and B5, with 5.12 PBM z-score against 500 random probes.

With B6, the binding signal was 4.8 PBM z-score against 500 random probes.

Turning to B7, the binding signal was 4.87 PBM z-score against 500 random probes. As for B8, the binding signal was 5.54 PBM z-score against 500 random probes.

As to B9, the binding signal is 5.49 PBM z-score against 500 random probes. Consider B10, for which the binding signal is 5.04 PBM z-score against 500 random probes.

B11: the binding signal is 4.92 PBM z-score against 500 random probes. Then B12, with 5.01 PBM z-score against 500 random probes. To B13 belongs 4.98 PBM z-score against 500 random probes; to B14, 5.52 PBM z-score against 500 random probes; to B15, 5.52 PBM z-score against 500 random probes.

With B16, the binding signal was 5.36 PBM z-score against 500 random probes. Then B17, with 5.31 PBM z-score against 500 random probes; and B18, with 5.62 PBM z-score against 500 random probes; and B19, with 5.35 PBM z-score against 500 random probes. Turning to B20, the binding signal is 5.26 PBM z-score against 500 random probes. Then B21, with 5.17 PBM z-score against 500 random probes; and B22, with 5.35 PBM z-score against 500 random probes; and B23, with 5.02 PBM z-score against 500 random probes. Then B24, with 5.05 PBM z-score against 500 random probes. As to B25, the binding signal is 4.95 PBM z-score against 500 random probes. To B26 belongs 4.79 PBM z-score against 500 random probes.

On to B27, for which the binding signal is 5.22 PBM z-score against 500 random probes.

Turning to B28, the binding signal was 5.55 PBM z-score against 500 random probes. Then B29, with 4.84 PBM z-score against 500 random probes; and B30, with 5.57 PBM z-score against 500 random probes; and B31, with 4.81 PBM z-score against 500 random probes.

B32: the binding signal is 5.07 PBM z-score against 500 random probes.
